Source: the Immune Epitope Database (IEDB)
One block for each sequence: values may come before it.

Key:
HLA-B*53:01 = assay: IEDB peptide-MHC binding, purified MHC/competitive/fluorescence; ≥ and ≤ were set here for values at or beyond the usual limits of such assays; details: source organism: human gammaherpesvirus 4
HLA-B*15:17 [1] = assay: IEDB peptide-MHC binding, purified MHC/direct/fluorescence; filed as Kd, often an IC50 or EC50 that approximates it; ≥ and ≤ were set here for values at or beyond the usual limits of such assays; details: source organism: Campylobacter jejuni RM1221
HLA-B*57:01 [2] = assay: as above; details: source organism: Campylobacter jejuni RM1221
HLA-B*58:01 [3] = assay: as above; details: source organism: Campylobacter jejuni RM1221
HLA-C*15:02 = assay: as above
HLA-C*12:03 = assay: as above
HLA-A*01:01 [4] = assay: as above; details: source organism: Haemophilus influenzae
HLA-A*02:01 [5] = assay: as above; details: source organism: Haemophilus influenzae
HLA-A*69:01 [6] = assay: as above; details: source organism: Haemophilus influenzae
HLA-B*15:01 [7] = assay: as above; details: source organism: Haemophilus influenzae
HLA-A*02:03 = assay: IEDB peptide-MHC binding, purified MHC/competitive/fluorescence; filed as Kd, often an IC50 or EC50 that approximates it; ≥ and ≤ were set here for values at or beyond the usual limits of such assays
HLA-A*02:06 = assay: as above
HLA-A*02:11 = assay: as above
HLA-C*03:03 = assay: IEDB peptide-MHC binding, purified MHC/direct/fluorescence; filed as Kd, often an IC50 or EC50 that approximates it; ≥ and ≤ were set here for values at or beyond the usual limits of such assays
HLA-B*15:01 [8] = assay: IEDB peptide-MHC binding, purified MHC/competitive/fluorescence; filed as Kd, often an IC50 or EC50 that approximates it; ≥ and ≤ were set here for values at or beyond the usual limits of such assays
HLA-A*02:01 [9] = assay: as above
HLA-A*02:12 = assay: as above; details: source organism: Escherichia coli 536
HLA-A*02:16 = assay: as above; details: source organism: Escherichia coli 536
HLA-A*02:19 = assay: as above; details: source organism: Escherichia coli 536
HLA-A*03:01 = assay: as above; details: source organism: Escherichia coli 536
HLA-A*23:01 = assay: as above
HLA-A*24:03 = assay: as above; details: source organism: Escherichia coli 536
HLA-A*26:01 = assay: as above; details: source organism: Escherichia coli 536
HLA-A*29:02 = assay: as above; details: source organism: Escherichia coli 536
HLA-A*68:02 = assay: as above; details: source organism: Escherichia coli 536
HLA-A*69:01 [10] = assay: as above; details: source organism: Escherichia coli 536
HLA-B*15:17 [11] = assay: as above; details: source organism: Escherichia coli 536
HLA-B*18:01 = assay: as above; details: source organism: Escherichia coli 536
HLA-B*27:03 = assay: as above; details: source organism: Escherichia coli 536
HLA-B*39:01 = assay: as above; details: source organism: Escherichia coli 536
HLA-B*46:01 = assay: as above; details: source organism: Escherichia coli 536
HLA-B*51:01 = assay: as above
HLA-B*57:01 [12] = assay: as above; details: source organism: Escherichia coli 536
HLA-B*15:42 = assay: as above
HLA-B*45:06 = assay: as above
HLA-B*83:01 = assay: as above
HLA-C*04:01 = assay: as above
HLA-C*05:01 = assay: IEDB peptide-MHC binding, purified MHC/direct/fluorescence; filed as Kd, often an IC50 or EC50 that approximates it; ≥ and ≤ were set here for values at or beyond the usual limits of such assays
HLA-B*07:02 = assay: as above; details: source organism: Mycobacterium tuberculosis variant bovis BCG str. Pasteur 1173P2
HLA-B*35:01 = assay: IEDB peptide-MHC binding, purified MHC/competitive/fluorescence; filed as Kd, often an IC50 or EC50 that approximates it; ≥ and ≤ were set here for values at or beyond the usual limits of such assays; details: source organism: Mycobacterium tuberculosis C
HLA-A*01:01 [13] = assay: as above; details: source organism: Escherichia coli
HLA-B*58:01 [14] = assay: as above; details: source organism: Escherichia coli
[15] = source organism: Human herpesvirus 4 strain B95-8
[16] = source organism: Haemophilus influenzae R3021
[17] = source organism: Salmonella enterica subsp. enterica serovar Typhi str. CT18
[18] = source organism: Escherichia coli 536
[19] = source organism: Yellow fever virus 1899/81
[20] = source organism: Mycobacterium tuberculosis C
[21] = source organism: Yersinia pestis Nepal516
[22] = source organism: Haemophilus influenzae R2846
[23] = source organism: Escherichia coli O157:H7 str. EDL933

Sequence: HPVLVTATL
IC50 (HLA-B*53:01): 3910 nM

Sequence: HSNSEYLMF
Kd (HLA-B*15:17 [1]): 1.1 nM
Kd (HLA-B*57:01 [2]): 134 nM
Kd (HLA-B*58:01 [3]): 5.5 nM
Kd (HLA-C*15:02; source organism: Campylobacter jejuni): 93 nM

Sequence: KAVETPILV
Kd (HLA-C*12:03; [15]): ≤ 1 nM
Kd (HLA-C*15:02; [15]): 51 nM

Kd (HLA-A*01:01 [4]): 2100 nM
Kd (HLA-A*02:01 [5]): 71 nM
Kd (HLA-A*69:01 [6]): 2660 nM
Kd (HLA-B*15:01 [7]): ≥ 67200 nM
Kd (HLA-A*02:03; [16]): 4.4 nM
Kd (HLA-A*02:06; [16]): ≤ 0.1 nM
Kd (HLA-A*02:11; [16]): ≤ 0.1 nM
Sequence: MLEEMQSAV

Sequence: MLNRYKLIY
IC50 (HLA-B*53:01): 170 nM

Sequence: MMQTYTGAL
Kd (HLA-C*03:03; [17]): 119 nM
Kd (HLA-B*15:01 [8]; [17]): 64.9 nM

Sequence: MTAASYARY
IC50 (HLA-B*53:01): ≥ 20000 nM

Kd (HLA-A*02:01 [9]; [18]): ≥ 20000 nM
Kd (HLA-A*02:03; [18]): ≥ 20000 nM
Kd (HLA-A*02:11; [18]): ≥ 20000 nM
Kd (HLA-A*02:12): ≥ 20000 nM
Kd (HLA-A*02:16): ≥ 20000 nM
Kd (HLA-A*02:19): ≥ 20000 nM
Kd (HLA-A*03:01): ≥ 20000 nM
Kd (HLA-A*23:01; [18]): ≥ 20000 nM
Kd (HLA-A*24:03): ≥ 20000 nM
Kd (HLA-A*26:01): ≥ 20000 nM
Kd (HLA-A*29:02): ≥ 20000 nM
Kd (HLA-A*68:02): ≥ 20000 nM
Kd (HLA-A*69:01 [10]): ≥ 20000 nM
Kd (HLA-B*15:01 [8]; [18]): ≥ 20000 nM
Kd (HLA-B*15:17 [11]): ≥ 20000 nM
Kd (HLA-B*18:01): ≥ 20000 nM
Kd (HLA-B*27:03): ≥ 20000 nM
Kd (HLA-B*39:01): ≥ 20000 nM
Kd (HLA-B*46:01): ≥ 20000 nM
Kd (HLA-B*51:01; [18]): ≥ 20000 nM
Kd (HLA-B*57:01 [12]): 880 nM
Sequence: QTDNDIWFW

Sequence: REMHHLVEF
Kd (HLA-B*15:42; [19]): ≥ 5000 nM
Kd (HLA-B*45:06; [19]): ≥ 5000 nM
Kd (HLA-B*83:01; [19]): ≥ 5000 nM
Kd (HLA-C*04:01; [19]): ≥ 5000 nM

Sequence: RLYQYSFAK
Kd (HLA-B*15:42; [20]): ≥ 5000 nM
Kd (HLA-B*45:06; [20]): ≥ 5000 nM
Kd (HLA-B*83:01; [20]): ≥ 5000 nM
Kd (HLA-C*04:01; [20]): ≥ 5000 nM

Sequence: RQPLNIQAI
Kd (HLA-A*02:01 [9]; [21]): 305 nM
Kd (HLA-A*02:06; [21]): 59.2 nM

Kd (HLA-C*05:01; [22]): 16 nM
Kd (HLA-C*15:02; [22]): ≥ 20000 nM
Sequence: TSDEIYMTF

Sequence: VMLQIPFYK
Kd (HLA-A*23:01; source organism: Rickettsia bellii RML369-C): 308 nM

Sequence: WPVLGSEVL
Kd (HLA-B*07:02): 223 nM
Kd (HLA-B*35:01): ≤ 0.1 nM
Kd (HLA-B*51:01; [20]): ≥ 20000 nM

Kd (HLA-C*12:03; source organism: Escherichia coli B171): 9 nM
Kd (HLA-A*01:01 [13]): 12 nM
Kd (HLA-B*58:01 [14]): 1380 nM
Sequence: YSALRPHEY

Kd (HLA-C*03:03; [23]): 60 nM
Kd (HLA-C*05:01; [23]): 37 nM
Kd (HLA-A*23:01; [23]): ≤ 1 nM
Sequence: YVLNGYTEF
